How the values were obtained:
[1] = target: Ubiquitin, human, recombinant (tag-free mono-Ub) (human, UniProt P0CG48 1-76); test: MST
[2] = target: Ubiquitin, human, recombinant, His-tag (His6-Ub) (human, UniProt P0CG48 1-76); test: MST

Kd [1]: 1250 ± 147 nM
Kd [2]: 69 nM
B1: HDAC6-EGFP WT (full-length human histone deacetylase 6 fused to EGFP) (enzyme)
chain: MTSTGQDSTTTRQRRSRQNPQSPPQDSSVTSKRNIKKGAVPRSIPNLAEVKKKGKMKKLGQAMEEDLIVGLQGMDLNLEAEALAGTGLVLDEQLNEFHCLWDDSFPEGPERLHAIKEQLIQEGLLDRCVSFQARFAEKEELMLVHSLEYIDLMETTQYMNEGELRVLADTYDSVYLHPNSYSCACLASGSVLRLVDAVLGAEIRNGMAIIRPPGHHAQHSLMDGYCMFNHVAVAARYAQQKHRIRRVLIVDWDVHHGQGTQFTFDQDPSVLYFSIHRYEQGRFWPHLKASNWSTTGFGQGQGYTINVPWNQVGMRDADYIAAFLHVLLPVALEFQPQLVLVAAGFDALQGDPKGEMAATPAGFAQLTHLLMGLAGGKLILSLEGGYNLRALAEGVSASLHTLLGDPCPMLESPGAPCRSAQASVSCALEALEPFWEVLVRSTETVERDNMEEDNVEESEEEGPWEPPVLPILTWPVLQSRTGLVYDQNMMNHCNLWDSHHPEVPQRILRIMCRLEELGLAGRCLTLTPRPATEAELLTCHSAEYVGHLRATEKMKTRELHRESSNFDSIYICPSTFACAQLATGAACRLVEAVLSGEVLNGAAVVRPPGHHAEQDAACGFCFFNSVAVAARHAQTISGHALRILIVDWDVHHGNGTQHMFEDDPSVLYVSLHRYDHGTFFPMGDEGASSQIGRAAGTGFTVNVAWNGPRMGDADYLAAWHRLVLPIAYEFNPELVLVSAGFDAARGDPLGGCQVSPEGYAHLTHLLMGLASGRIILILEGGYNLTSISESMAACTRSLLGDPPPLLTLPRPPLSGALASITETIQVHRRYWRSLRVMKVEDREGPSSSKLVTKKAPQPAKPRLAERMTTREKKVLEAGMGKVTSASFGEESTPGQTNSETAVVALTQDQPSEAATGGATLAQTISEAAIGGAMLGQTTSEEAVGGATPDQTTSEETVGGAILDQTTSEDAVGGATLGQTTSEEAVGGATLAQTTSEAAMEGATLDQTTSEEAPGGTELIQTPLASSTDHQTPPTSPVQGTTPQISPSTLIGSLRTLELGSESQGASESQAPGEENLLGEAAGGQDMADSMLMQGSRGLTDQAIFYAVTPLPWCPHLVAVCPIPAAGLDVTQPCGDCGTIQENWVCLSCYQVYCGRYINGHMLQHHGNSGHPLVLSYIDLSAWCYYCQAYVHHQALLDVKNIAHQNKFGEDMPHPH

— doi:10.1101/203372 (bioRxiv, 2017)
